Assay results reported in patent US5587462, “Brain-derived membrane-associated CRF binding proteins” (The Salk Institute For Biological Studies, dated 1996).
Blank lines part the entries; values can stand above or below the molecule they belong to.

Experiments:
[1] = target: 33 kD ovine brain-derived membrane-associated CRF-BP (sheep (ovine)); experiment: competition of radiolabeled CRF binding by cold CRF
[2] = target: 35 kD ovine brain-derived membrane-associated CRF-BP (sheep (ovine)); experiment: as above
[3] = target: T1, human Corticotropin-Releasing Factor (hCRF) (human (same molecule in rat), UniProt P06850, 125I-radiolabeled in the binding, cross-linking and LIRMA assays; immobilized on a solid-phase matrix in the affinity chromatography); experiment: binding assay with purified membrane-associated CRF-BP
T1 peptide: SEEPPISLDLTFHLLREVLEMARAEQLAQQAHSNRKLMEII

concentration of cold CRF that competes [1]: 1 µM
concentration of cold CRF that competes [2]: 1 µM
Molecule: Corticotropin-Releasing Factor (CRF), species not stated at the experiment (peptide)

Kd [3]: 0.25 nM
B1: 33 kD ovine brain-derived membrane-associated CRF-BP (other)
chain: ELEGEPLYRRALRCVDMLSLQGQFTFTADRRQLHCATFFIAEPEEFITIHYDLVSIDCLRGDILQVFDGWILKGEKFPSSQDHPLPTTERYVDFCDSGLSRRSIRSSQNVAMIFFRVHEPGNGFTITVKTEPNLFPCNIISQTPNGRFTLVMPHQHRNCSFSIIYPVAIKISDLTLGHLNGLQLKKSSAGCGGIGDFVELLGGTGLDPSKMLLLADLCYPLRGPAQMKVGCDHTVLRMVSSGKLLNRVTFEYRKLEPYELENPNGNSIQEFCLSTL

Kd [3]: 7.5 nM
B2: 35 kD ovine brain-derived membrane-associated CRF-BP (other)
chain: EAVDHDSFPHLAGGASPKRELEGEPLYRRALRCVDMLSLQGQFTFTADRRQLHCATFFIAEPEEFITIHYDLVSIDCLRGDILQVFDGWILKGEKFPSSQDHPLPTTERYVDFCDSGLSRRSIRSSQNVAMIFFRVHEPGNGFTITVKTEPNLFPCNIISQTPNGRFTLVMPHQHRNCSFSIIYPVAIKISDLTLGHLNGLQLKKSSAGCGGIGDFVELLGGTGLDPSKMLLLADLCYPLRGPAQMKVGCDHTVLRMVSSGKLLNRVTFEYRKLEPYELENPNGNSIQEFCLSTL
